One data set deals with GST-p300TAZ2. The experiment in a line: Mass photometry (MP) of GST-p300TAZ2 with EZH2TAD constructs. Particulars: 20 nM GST-p300TAZ2 alone. It counts as binding, human. Here is the method:
[37]. […] After induction with isopropyl b-D-1-thiogalactopyranoside (IPTG), harvesting, and lysis in buffer [50 mM Tris pH 7.0, 1 M NaCl, 5 mM dithiothreitol (DTT), 1 mM phenylmethanesulfonylfluoride (PMSF) and DNase] by sonication, the proteins were purified on glutathione agarose beads (Pierce) and eluted with buffer containing reduced L-glutathione (Fisher). The GST tag was either cleaved with TEV protease overnight at 22°C or kept intact during subsequent purification steps. […] The EZH2TAD1 ([…]) construct was generated by deletion using Q5 Hot Start High-Fidelity kit (NEB) and confirmed by DNA sequencing. Both constructs were expressed in E. coli Rosetta-2 (DE3) pLysS cells grown in LB media and induced at an OD600 of 0.6-0.8 with 1 mM IPTG for 16 h at 16°C. Cells were harvested by centrifugation, suspended in buffer (50 mM Tris pH 7.5, 500 mM NaCl, 1% CHAPS, 2 mM DTT, 1 mM PMSF, Roche cOmplete Protease Inhibitor Cocktail, and DNase), and lysed by sonication. […] When necessary, EZH2TAD constructs were further purified using a Superdex 200 Increase 10/300 GL column (Cytiva) with monitoring at 205 and 280 nm. […] To overcome the minimum size limit, a GST-fusion construct was used for one of the components in each sample. […] Ten microliter of each sample was loaded into the sample wells of the silicon cassettes assembled onto MassGlass UC coverslips (Refeyn, Ltd.). […]

The test system of data set [1] is FLAG-HA-tagged p300 catalytic core (aa 1035–1830 of p300). The experiment in a line: Histone acetyltransferase (HAT) assay, Western blot, recombinant nucleosome substrate. In kind it is biochemical. The settings on record: 1 μg p300 core, 2.5, 5 or 10 μg GST-tagged TADs, 1 μg nucleosome, 15 min. Here is the method: Histone acetyltransferase assay
For HAT assays, FLAG-HA-tagged p300 core (aa 1035–1830 of p300) in a pCDH vector was expressed in 293 T cells for two days. Cells were lysed in lysis buffer (50 mM Tris-HCl pH 7.5, 300 mM NaCl, 1.5 mM MgCl2, 1 mM EDTA, 1% Triton100, 10% glycerol, 1 mM PMSF, and protease inhibitors) and sonicated. Cell lysates were incubated with anti-Flag M2 beads (Sigma) at 4° for 4 h. The beads were then washed three times with buffer (50 mM Tris-HCl pH 7.5, 500 mM NaCl, 1.5 mM MgCl2, 0.2 mM EDTA, 0.1% NP40, 10% glycerol, and 1 mM PMSF), and the protein was eluted with elution buffer (50 mM Tris-HCl pH 7.5, 300 mM NaCl, 1 mM DTT, 10% glycerol, and 0.4 mg/ml Flag peptide).
GST-tagged EZH2TADs (aa 119–267), EZH1TADs (aa 120–280), F176A/F237A EZH1TADs (EZH1 2A), and F146A/F176A/F237A/Y257A EZH1TADs (EZH1 4A) constructs in the pGEX-6p-1 vector were transformed into RosettaTM2 (DE3) pLysS competent cells (Novagen). Protein production was induced by incubating with 0.4 mM IPTG at 16°C for 20 h in LB. Cell pellets were resuspended in lysis buffer (50 mM Tris-HCl pH 8.0, 300 mM NaCl, 1 mM PMSF, and 1 × cOmpleteTM EDTA-free Protease Inhibitor Cocktail) and lysed by sonication. Lysates were centrifuged at 17,000 g for 15 min, and supernatants were incubated with Glutathione Sepharose® 4B beads (Sigma) at 4°C for 2 h. Beads were washed with lysis buffer twice, and proteins were eluted with elution buffer (50 mM Tris-HCl pH 8.0, 150 mM NaCl, 10% glycerol, and 15 mg/ml GSH).
Purified FLAG-HA-tagged p300 catalytic core fragment (1 μg) was incubated with increasing amounts of GST-tagged EZH2TADs and GST-tagged EZH1TADs (2.5, 5, or 10 μg) and the nucleosome (1 μg) in HAT reaction buffer (50 mM Tris-HCl pH 8.0, 100 mM NaCl, 10% glycerol, 1 mM DTT, […], and 1× cOmplete EDTA-free Protease Inhibitor Cocktail) at 30°C for 15 min. Reactions were stopped by boiling at 95°C for 5 min in 2×SDS loading buffer, and samples were analyzed by SDS-PAGE and Western blot. […]

Numbering of substitutions follows the chain as printed. Numbers in names are those of the source.

B1: GST-p300TAZ2: GST-tagged human p300 TAZ2 domain, aa 1722–1812 (protein)
chain: AWTQSPGDSRRLSIQRCIQSLVHACQCRNANCSLPSCQKMKRVVQHTKGCKRKTNGGCPICKQLIALCCYHAKHCQENKCPVPFCLNIKQK
modifications: left off: GST, end not stated, kept
On to B1, for which the “oligomeric state in the apo-state” value in the data set on GST-p300TAZ2 is on record as “exists in a dimeric form”. In addition, the “MP peak, apo GST-p300TAZ2” value with GST-p300TAZ2 (Figure 5a, room temperature, 50 mM Tris pH 7.5, 150 mM NaCl, 5 mM DTT) is recorded as ~ 80 kDa.

B2: EZH1 WT: GST-tagged EZH1TAD1-TAD2-TAD3 (aa 120–280) (protein)
chain: NFMVEDETVLCNIPYMGDEVKEEDETFIEELINNYDGKVHGEEEMIPGSVLISDAVFLELVDALNQYSDEEEEGHNDTSDGKQDDSKEDLPVTRKRKRHAIEGNKKSSKKQFPNDMIFSAIASMFPENGVPDDMKERYRELTEMSDPNALPPQCTPNIDGP
modifications: left off: GST, end not stated, kept
For the molecule B2, the “H3K18 acetylation by p300 core” value in data set [1] (100 mM acetyl-CoA, 50 mM Tris-HCl pH 8.0, 30°C, H3K18ac Western blot) is “dose-dependent increase in H3K18 and H3K27 acetylation”. Moreover, the “H3K27 acetylation by p300 core” value in data set [1] (100 mM acetyl-CoA, 50 mM Tris-HCl pH 8.0, 30°C, H3K27ac Western blot) was “dose-dependent increase in H3K18 and H3K27 acetylation”.

B3: EZH1 2A: GST-tagged F176A/F237A mutant of EZH1TAD1-TAD2-TAD3 (aa 120–280) (protein)
chain: B2 chain with F57A, F118A
modifications: left off: GST, end not stated, kept
With B3, in data set [1] (mutants compared with EZH1 WT, 30°C, H3K18ac and H3K27ac Western blot), the “stimulation of p300 enzymatic activity” value was “stimulation of the p300 enzymatic activity was decreased”.
